Source: patent publication US20200299331A1
Bridge positions count the residues as written; N and C are the ends.

Biological target: TNF receptor (human)
Assay: cell-based or functional assay

B1: AP301 peptide (peptide)
peptide: H-CGQRETPEGAEAKPWYC-OH
modifications: bridge 1-17; also: cyclized via the Cys residues, disulfide given as preferred, bond type of batch not given here
< 0.5 pg/mL: concentration of IL-6 (pg/ml, n = 5) released from fresh human whole blood, AP301 at 1 ng/ml | concentration of IL-6 (pg/ml, n = 5) released from fresh human whole blood, AP301 at 3 ng/ml | concentration of IL-6 (pg/ml, n = 5) released from fresh human whole blood, AP301 at 1 mg/ml as printed | concentration of IL-6 (pg/ml, n = 5) released from fresh human whole blood, AP301 at 10 mg/ml as printed
